{
  "source": "paper PMC4676782",
  "molecules": {"B1": {"name": "Human Carboxylesterase 1 (hCES1): N79Q (protein)", "parent chain": "MWLRAFILATLSASAAWGHPSSPPVVDTVHGKVLGKFVSLEGFAQPVAIFLGIPFAKPPLGPLRFTPPQPAEPWSFVKNATSYPPMCTQDPKAGQLLSELFTNRKENIPLKLSEDCLYLNIYTPADLTKKNRLPVMVWIHGGGLMVGAASTYDGLALAAHENVVVVTIQYRLGIWGFFSTGDEHSRGNWGHLDQVAALRWVQDNIASFGGNPGSVTIFGESAGGESVSVLVLSPLAKNLFHRAISESGVALTSVLVKKGDVKPLAEQIAITAGCKTTTSAVMVHCLRQKTEEELLETTLKMKFLSLDLQGDPRESQPLLGTVIDGMLLLKTPEELQAERNFHTVPYMVGINKQEFGWLIPMQLMSYPLSEGQLDQKTAMSLLWKSYPLVCIAKELIPEATEKYLGGTDDTVKKKDLFLDLIADVMFGVPSVIVARNHRDAGAPTYMYEFQYRPSFSSDMKPKTVIGDHGDELFSVFGAPFLKEGASEEEIRLSKMVMKFWANFARNGNPNGEGLPHWPEYNQKEGYLQIGANTQAAQKLKDKEVAFWTNLFAKKAVEKPPQTEHIEL"}},
  "key": {"[1]": {"biological_target": "Human Carboxylesterase 1 (hCES1), wild type, glycosylated (human) (UniProt P23141)", "test": "SEC; HiLoad 16/60 Superdex 200, 200 mM NaCl, 20 mM Tris-HCl, pH 7.5; molecular weight estimated from globular protein standards"}, "[2]": {"biological_target": "Human Carboxylesterase 1 (hCES1), wild type, glycosylated (human) (UniProt P23141)", "test": "AUC; sedimentation velocity, 20°C, 2, 1.0 and 0.5 mg/mL protein in 20 mM TrisHCl, pH 7.5, 200 mM NaCl, 40,000 rpm; c(S) analysis with SEDFIT"}, "[3]": {"biological_target": "hCES1 N79Q (aglycosylated hCES1) (human) (UniProt P23141)", "test": "SEC; HiLoad 16/60 Superdex 200, 200 mM NaCl, 20 mM Tris-HCl, pH 7.5; molecular weight estimated from globular protein standards"}, "[4]": {"biological_target": "hCES1 N79Q (aglycosylated hCES1) (human) (UniProt P23141)", "test": "AUC; sedimentation velocity, 20°C, 2, 1.0 and 0.5 mg/mL protein in 20 mM TrisHCl, pH 7.5, 200 mM NaCl, 40,000 rpm; c(S) analysis with SEDFIT"}, "[5]": {"biological_target": "hCES1 S221A (catalytically inactive mutant) (human) (UniProt P23141)", "test": "SEC; HiLoad 16/60 Superdex 200, 200 mM NaCl, 20 mM Tris-HCl, pH 7.5; molecular weight estimated from globular protein standards"}, "[6]": {"biological_target": "hCES1 S221A (catalytically inactive mutant) (human) (UniProt P23141)", "test": "AUC; sedimentation velocity, 20°C, 2, 1.0 and 0.5 mg/mL protein in 20 mM TrisHCl, pH 7.5, 200 mM NaCl, 40,000 rpm; c(S) analysis with SEDFIT"}, "[7]": {"test": "crystal structure superposition, Cα rmsd", "settings": "glycan lost; control: glycosylated hCES1 structure (5a7f)"}, "[8]": {"settings": "N-glycosylation at N79"}, "[9]": {"test": "sedimentation velocity analytical ultracentrifugation", "settings": "glycan lost; control: glycosylated hCES1"}, "[10]": {"test": "size exclusion chromatography", "settings": "glycan lost; control: glycosylated hCES1"}, "[11]": {"test": "4-NPA hydrolysis, A405, specific activity", "settings": "glycan lost; control: glycosylated hCES1"}, "[12]": {"test": "4-NPA kinetics, allosteric sigmoidal fit", "settings": "glycan lost; control: glycosylated hCES1"}},
  "note": "Where two headings read alike, the source gives them in different places.",
  "data": [
    {"molecule": "Human Carboxylesterase 1 (hCES1), wild type, glycosylated (from UniProt P23141 18-567) (enzyme)", "values": [
      {"measurement": "stoichiometry N", "setting": "[1]", "result": 3},
      {"measurement": "stoichiometry N", "setting": "[2]", "result": 3}
    ]},
    {"molecule": "hCES1 N79Q (aglycosylated hCES1) (from UniProt P23141 18-567) (enzyme)", "values": [
      {"measurement": "stoichiometry N", "setting": "[3]", "result": 3},
      {"measurement": "stoichiometry N", "setting": "[4]", "result": 3}
    ]},
    {"molecule": "hCES1 S221A (catalytically inactive mutant) (from UniProt P23141 18-567) (enzyme)", "values": [
      {"measurement": "stoichiometry N", "setting": "[5]", "result": 3},
      {"measurement": "stoichiometry N", "setting": "[6]", "result": 3}
    ]},
    {"molecule": "B1", "values": [
      {"measurement": "structure or conformation, other: rmsd to control", "setting": "[7]", "result": 0.47, "unit": "Å"},
      {"measurement": "enzymatic_activity", "setting": "[8]", "result": "no change, specific activity 73 (hCES1) vs 98 (N79Q) µmol min-1 μg-1; Vmax 9.25 +/- 1.30 vs 10.92 +/- 2.01 μMmin-1; h 1.46 vs 1.57"},
      {"measurement": "expression_or_secretion", "setting": "[8]", "result": "no change, 39 mg/L (N79Q, transient HEK293T) vs 64 mg/L (hCES1, stable HEK293 Gnt1-/-)"},
      {"measurement": "oligomerisation", "setting": "[8]", "result": "no change, trimer, apparent molecular weight 152 kDa"},
      {"measurement": "structure_or_conformation", "setting": "[8]", "result": "no change, rmsd 0.47 Å (vs hCES1) and 0.3 Å (vs S221A) for all Cα atoms"},
      {"measurement": "oligomerisation", "setting": "[9]", "result": "no change"},
      {"measurement": "oligomerisation", "setting": "[10]", "result": "no change"},
      {"measurement": "enzymatic_activity, other: specific activity", "setting": "[11]", "result": "no change, 98 vs 73, The purified aglycosylated enzyme was found to be more active than glycosylated hCES1"},
      {"measurement": "enzymatic_activity, other: Hill coefficient", "setting": "[12]", "result": "no change, 1.57 +/- 0.4 vs 1.46 +/- 0.26"},
      {"measurement": "enzymatic_activity, other: Khalf", "setting": "[12]", "result": "no change, 1090 +/- 343.3 vs 1123 +/- 280.2"},
      {"measurement": "enzymatic_activity, other: Vmax", "setting": "[12]", "result": "no change, 10.92 +/- 2.01 vs 9.25 +/- 1.30"}
    ]}
  ]
}
